{
  "source": "patent US12139531B2",
  "about": "“Compositions and methods useful in promoting milk production” (The Regents of the University of California, priority 2019, dated 2024)",
  "key": {"mammary gland": {"tested_on": "mammary gland", "test": "Subcutaneous injection into ovariectomized, hormone-treated mice; carmine-stained mammary gland branching", "format": "in vivo", "details": "14 days, ovariectomized animals given E, P, Prl", "method": "The influence of ROBO1 ECD fragments in vitro on primary alveolar progenitor cell growth and in vivo on branching morphogenesis was tested. FACS-purified murine and bovine alveolar progenitor cells (AVPs) were plated as single cells in Matrigel and grown for 10 days in the absence and presence of ROBO1-ECDs fragments (FIGS. 9A, B). […] ROBO1-Ig5 fragments were also tested in vivo by subcutaneously injecting them (7.5 mammary gland/kg/day) into ovariectomized animals that were orally administered hormones in Nutella: estrogen (E, 1 μg/day), progesterone (P, 1 mg/day mammary gland/day) and prolactin (Prl, 0.2 mg/day mammary gland/day) (FIG. 9C). The mammary glands were harvested after 14 days of ROBO1-Ig5 fragment treatment, carmine stained and evaluated. […] Other aspects can involve ROBO1-ECD constructs that are tagged with the murine-Fc sequence. This tag is recognized by an endogenous receptor that facilitates transport into tissues 4. Mouse mammary glands were surgically dissected, spread onto a glass slide, and fixed in Carnoy's solution (25% glacial acetic acid and 75% ethanol). […] C57BL mice (8-10 weeks old) were bilaterally ovariectomized and allowed to recover for 1 week^47. During the recovery, mice were trained with oral administration Nuttella. Mice were fed Nutella mixed with 17beta-estradiol (E, 1 μg, Sigma)+progesterone (P, 1 mg, Sigma) for three weeks (daily). For ROBO1-Ig5 ECD, prolactin (Prl, 200 μg, NHPP) was given by Nutella oral administration over one week (daily), starting after 1 week E+P. For ROBO2 mAb, prolactin (Prl, 50 μg) was injected by intraperitoneal injection over 2.5 weeks (daily), starting after 1 week E+P. ROBO1-Ig5 ECD was injected subcutaneously (7.5 mg/kg ROBO1-Ig5 ECD or PBS; daily) over the 2 weeks period, starting after 1 week of E+P. ROBO2 mAbs or IgG isotype control mAbs ([…]) were injected subcutaneously twice/week over 17 days, starting after 1 week of E+P^48."}, "Notch signaling": {"tested_on": "Notch signaling", "test": "RT-qPCR of Notch effector expression (Hey1, Hes1) in HC11 cells", "format": "cell-based, mouse", "details": "HC11 cells treated with ROBO1-ECD fragments", "method": "To examine the effects of ROBO1-ECD fragments on Notch signaling, HC11 cells were treated with ROBO1-ECD fragments and Notch effector expression assessed. […] In addition, HC11 cells were treated with ROBO-Ig5 during differentiation. These cells were then fractionated and a Western blot performed to detect HES1 and NOTCH4-ICD (FIG. 8B).\nTotal RNA was harvested from cells lysed in TRIzol reagent (Invitrogen) and phase separated according to manufacturer's protocol with an additional overnight RNA precipitation stem in ethanol (Macias et al., 2011). The RNA was further purified with TURBO DNase (Ambion) treatment. Total RNA quality was analyzed by agarose gel electrophoresis and quantified with an ND-1000 spectrophotometer (NanoDrop). cDNA libraries were prepared from 1 μg of total RNA using iScript cDNA synthesis kit (BioRad). Quantitative RT-PCR was performed in triplicates using light Cycler 480 SYBR Green I Master (Roche) and quantified using BioRad CFX'Connect Real-Time System and CFX Manager software (BioRad). Results were normalized to GAPDH."}, "HC11 cells": {"tested_on": "HC11 cells", "test": "Western blot analysis of WAP and PLIN2 in HC11 cells", "format": "cell-based, mouse", "details": "ECD titration", "method": "To determine whether the promotion of dome formation also results in higher milk production, HC11 cells were differentiated in the presence or absence of ROBO1-ECD fragments that were added to cells simultaneously with DIP media. Cells were harvested and the expression of WAP and Lalba assessed by RT-qPCR. […] WAP expression levels were not increased in cells treated with DCC-Ig4 (FIG. 7K). Next, Western blot analysis of WAP and PLIN2 was performed on cells treated with ROBO1-Ig5 and ROBO1-Ecto.\nProtein lysates were prepared by directly lysing adherent cells in 1× sample buffer supplemented with 5% beta-mercaptoethanol and boiled for 5 minutes. Protein lysate was resolved by SDS-PAGE and transferred to a PVDF for 90 minutes at 400 mA or overnight at 30 mA. Primary antibodies were used at the concentration indicated in Table 1 and incubated overnight at 4° C. HRP conjugated secondary antibodies (Jackson Labs) were used at 1:3000 and incubated for 45 minutes at room temp. All proteins were detected using Clarity ECL (BioRad) using a BioRad Chemi-Doc MP Imager and quantified using ImageLab software as previously described a."}, "[1]": {"tested_on": "bovine alveolar progenitor cells (AVPs)", "test": "Organoid growth of FACS-purified bovine alveolar progenitor cells in Matrigel", "format": "cell-based", "details": "single cells in Matrigel, 10 days, vs untreated controls", "method": "The influence of ROBO1 ECD fragments in vitro on primary alveolar progenitor cell growth and in vivo on branching morphogenesis was tested. FACS-purified murine and bovine alveolar progenitor cells (AVPs) were plated as single cells in Matrigel and grown for 10 days in the absence and presence of ROBO1-ECDs fragments (FIGS. 9A, B). […] ROBO1-Ig5 fragments were also tested in vivo by subcutaneously injecting them (7.5 mammary gland/kg/day) into ovariectomized animals that were orally administered hormones in Nutella: estrogen (E, 1 μg/day), progesterone (P, 1 mg/day mammary gland/day) and prolactin (Prl, 0.2 mg/day mammary gland/day) (FIG. 9C). The mammary glands were harvested after 14 days of ROBO1-Ig5 fragment treatment, carmine stained and evaluated. […] Other aspects can involve ROBO1-ECD constructs that are tagged with the murine-Fc sequence. This tag is recognized by an endogenous receptor that facilitates transport into tissues 4.\nFACS purified AVPs were cultured in Matrigel (BD Bioscience) at a density of 5000 cell/100 uL and cultured in basal medium; DMEM: F12 phenol-free, 10 mM HEPES, N2 (Gibco), B27 (Gibco) supplemented with 100 ng/mL Neuregulin (R&D), 42.5 ng/mL R-Spondin1 (Peprotech) […]. […]"}},
  "note": "Entries after “also recorded” stand apart in the source; their conditions may differ.",
  "data": [
    {"molecule": "ROBO1-Ig5: recombinant soluble ROBO1 ECD construct comprising all five Ig domains (protein) SRLRQEDFPPRIVEHPSDLIVSKGEPATLNCKAEGRPTPTIEWYKGGERVETDKDDPRSHRMLLPSGSLFFLRIVHGRKSRPDEGVYICVARNYLGEAVSHNASLEVAILRDDFRQNPSDVMVAVGEPAVMECQPPRGHPEPTISWKKDGSPLDDKDERITIRGGKLMITYTRKSDAGKYVCVGTNMVGERESEVAELTVLERPSFVKRPSNLAVTVDDSAEFKCEARGDPVPTVRWRKDDGELPKSRYEIRDDHTLKIRKVTAGDMGSYTCVAENMVGKAEASATLTVQEPPHFVVKPRDQVVALGRTVTFQCEATGNPQPAIFWRREGSQNLLFSYQPPQSSSRFSVSQTGDLTVTNVQRSDVGYYICQTLNVAGSIITKAYLEVTDVIADRPPPVIRQGPVNQTVAVDGTLTLSCVATGSPVPTILWRKDGVLVSTQDSRIKQLESGVLQIRYAKLGDTGRYTCTASTPSGEATWSAYIEVQEF", "values": [
      {"measurement": "mammary gland area (size)", "setting": "mammary gland", "result": "significantly greater area"},
      {"measurement": "number of primary (1°) branches", "setting": "mammary gland", "result": "higher number"},
      {"measurement": "overall branching density", "setting": "mammary gland", "result": "not different from that of controls; also recorded: no increase"},
      {"measurement": "secondary (2°) and tertiary (3°) branching", "setting": "mammary gland", "result": "More and Increased"},
      {"measurement": "mammary gland area (size)", "setting": "mammary gland; listed as ROBO1-Ig-5", "result": "Increased"},
      {"measurement": "number of primary (1°) branches", "setting": "mammary gland; listed as ROBO1-Ig-5", "result": "Increased"},
      {"measurement": "Hes1 expression", "setting": "Notch signaling", "result": "lower expression; also recorded: decreased"},
      {"measurement": "Hey1 expression", "setting": "Notch signaling", "result": "lower expression; also recorded: decreased"},
      {"measurement": "PLIN2 protein expression", "setting": "HC11 cells", "result": "approximately two-fold; also recorded: increased"},
      {"measurement": "WAP protein expression", "setting": "HC11 cells", "result": "approximately two-fold; also recorded: increased"},
      {"measurement": "size of bovine organoids", "setting": "[1]", "result": "larger bovine organoids; also recorded: increased the size"}
    ]}
  ]
}
